Where two headings read alike, the source gives them in different places.
Columns and labels:
[1] = target: GPCR73b receptor (Homo sapiens (Human)) (UniProt Q8NFJ6); assay: cell-based or functional assay
[2] = target: GPCR73a receptor (Homo sapiens (Human)) (UniProt Q8TCW9); assay: cell-based or functional assay
[3] = target: GPCR73b receptor (Homo sapiens (Human)) (UniProt Q8NFJ6); assay: cell-based or functional assay; remark: listed apart in the source
[4] = target: GPCR73a receptor (Homo sapiens (Human)) (UniProt Q8TCW9); assay: cell-based or functional assay; remark: listed apart in the source
[5] = target: Zven1 receptor on Wky12-22 cells (rat); assay: saturation binding of I125-radiolabeled Zven1 to Wky12-22 cell monolayers at 4 C, two-site nonlinear regression; low affinity site
[6] = target: Zven1 receptor on Wky12-22 cells (rat); assay: saturation binding of I125-radiolabeled Zven1 to Wky12-22 cell monolayers at 4 C, two-site nonlinear regression; high affinity site
[7] = target: Zven1 receptor on Wky12-22 cells (rat); assay: cell-based or functional assay
GPCR73a receptor [8] = target: T1, GPCR73a receptor (Homo sapiens (Human), UniProt Q8TCW9 1-393); assay: cell-based or functional assay
GPCR73a receptor [9] = target: T1, GPCR73a receptor; assay: cell-based or functional assay; remark: listed apart in the source
GPCR73b receptor [10] = target: T2, GPCR73b receptor (Homo sapiens (Human), UniProt Q8NFJ6 1-384); assay: cell-based or functional assay
GPCR73b receptor [11] = target: T2, GPCR73b receptor; assay: cell-based or functional assay; remark: listed apart in the source

T1 sequence (Q8TCW9 whole entry): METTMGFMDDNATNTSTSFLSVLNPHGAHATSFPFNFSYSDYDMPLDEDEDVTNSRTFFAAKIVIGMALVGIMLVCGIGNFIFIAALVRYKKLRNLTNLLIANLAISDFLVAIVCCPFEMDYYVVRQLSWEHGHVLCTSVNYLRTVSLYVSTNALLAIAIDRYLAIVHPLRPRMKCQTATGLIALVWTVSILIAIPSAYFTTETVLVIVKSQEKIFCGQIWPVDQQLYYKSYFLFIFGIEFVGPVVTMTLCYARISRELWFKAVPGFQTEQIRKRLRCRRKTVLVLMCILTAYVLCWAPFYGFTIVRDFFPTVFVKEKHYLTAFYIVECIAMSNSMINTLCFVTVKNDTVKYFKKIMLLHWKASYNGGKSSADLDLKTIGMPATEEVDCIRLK
Chain of GPCR73a receptor (Homo sapiens (Human)) (Q8TCW9 whole entry): as above
T2 sequence (Q8NFJ6 whole entry): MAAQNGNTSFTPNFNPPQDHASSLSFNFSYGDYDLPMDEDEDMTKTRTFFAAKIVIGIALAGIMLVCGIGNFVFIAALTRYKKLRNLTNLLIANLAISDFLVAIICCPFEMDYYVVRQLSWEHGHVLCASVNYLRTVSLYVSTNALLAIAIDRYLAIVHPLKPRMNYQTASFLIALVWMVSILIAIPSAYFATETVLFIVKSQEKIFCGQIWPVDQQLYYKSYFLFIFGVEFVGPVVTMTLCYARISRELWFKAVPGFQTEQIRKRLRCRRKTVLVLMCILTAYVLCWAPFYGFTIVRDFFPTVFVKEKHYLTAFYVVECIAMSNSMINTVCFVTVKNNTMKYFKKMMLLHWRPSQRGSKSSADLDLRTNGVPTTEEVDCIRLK
Chain of GPCR73b receptor (Homo sapiens (Human)) (Q8NFJ6 whole entry): as above

B1: Zven2 ("endocrine-gland-derived vascular endothelial growth factor") protein purchased from Peprotech, Inc. (ligand)
chain: AVITGACERDVQCGAGTCCAISLWLRGLRMCTPLGREGEECHPGSHKVPFFRKRKHHTCPCLPNLLCSRFPDGRYRCSMDLKNINF
SRE luciferase fold-induction at 1 ng/ml (fold-induction) [1]: 1.1
SRE luciferase fold-induction at 3.2 ng/ml (fold-induction) [1]: 1.3
SRE luciferase fold-induction at 10 ng/ml (fold-induction) [1]: 1.8
SRE luciferase fold-induction at 32 ng/ml (fold-induction) [1]: 2.8
SRE luciferase fold-induction at 100 ng/ml (fold-induction) [1]: 5.6
SRE luciferase fold-induction at 320 ng/ml (fold-induction) [1]: 8.3
SRE luciferase fold-induction at 1000 ng/ml (fold-induction) [1]: 8.4
SRE luciferase fold-induction at 1 ng/ml (fold-induction) [2]: 1.2
SRE luciferase fold-induction at 3.2 ng/ml (fold-induction) [2]: 1.6
SRE luciferase fold-induction at 10 ng/ml (fold-induction) [2]: 2.5
SRE luciferase fold-induction at 32 ng/ml (fold-induction) [2]: 5.8
SRE luciferase fold-induction at 100 ng/ml (fold-induction) [2]: 11.4
SRE luciferase fold-induction at 320 ng/ml (fold-induction) [2]: 24.4
SRE luciferase fold-induction at 1000 ng/ml (fold-induction) [2]: 20
SRE luciferase fold-induction at 3.2 ng/ml (fold-induction) [3]: 1.4
SRE luciferase fold-induction at 32 ng/ml (fold-induction) [3]: 2.7
SRE luciferase fold-induction at 100 ng/ml (fold-induction) [3]: 4.1
SRE luciferase fold-induction at 320 ng/ml (fold-induction) [3]: 5.8
SRE luciferase fold-induction at 1000 ng/ml (fold-induction) [3]: 6.1
SRE luciferase fold-induction at 1 ng/ml (fold-induction) [4]: 0.95
SRE luciferase fold-induction at 3.2 ng/ml (fold-induction) [4]: 1.3
SRE luciferase fold-induction at 10 ng/ml (fold-induction) [4]: 2.6
SRE luciferase fold-induction at 32 ng/ml (fold-induction) [4]: 7.2
SRE luciferase fold-induction at 320 ng/ml (fold-induction) [4]: 20.5
SRE luciferase fold-induction at 1000 ng/ml (fold-induction) [4]: 15

B2: Zven1 protein produced in baculovirus with a C-terminal Glu-Glu tag (ligand)
chain: AVITGACDKDSQCGGGMCCAVSIWVKSIRICTPMGKLGDSCHPLTRKVPFFGRRMHHTCPCLPGLACLRTSFNRFICLAQKGLEYMPMD
Bmax (fmol bound/10^6 cells) [5]: 1020
Kd [5]: 31 nM
Bmax (fmol bound/10^6 cells) [6]: 350
Kd [6]: 1.5 nM
SRE luciferase fold-induction at 1 ng/ml (fold-induction) [2]: 2.5
SRE luciferase fold-induction at 3.2 ng/ml (fold-induction) [2]: 7.1
SRE luciferase fold-induction at 10 ng/ml (fold-induction) [2]: 13.1
SRE luciferase fold-induction at 32 ng/ml (fold-induction) [2]: 18.7
SRE luciferase fold-induction at 100 ng/ml (fold-induction) [2]: 20.5
ERK-Map kinase activity in Wky12-22 cells, EC50 [7]: 0.5 nM

B3: Heated Zven1 (Baculovirus-expressed Zven1 heated at 56° C. for 30 minutes) (ligand)
chain: AVITGACDKDSQCGGGMCCAVSIWVKSIRICTPMGKLGDSCHPLTRKVPFFGRRMHHTCPCLPGLACLRTSFNRFICLAQKGLEYMPMD
SRE luciferase fold-induction at 1 ng/ml (fold-induction) [2]: 1.8
SRE luciferase fold-induction at 3.2 ng/ml (fold-induction) [2]: 3.7
SRE luciferase fold-induction at 10 ng/ml (fold-induction) [2]: 10
SRE luciferase fold-induction at 32 ng/ml (fold-induction) [2]: 14.8
SRE luciferase fold-induction at 100 ng/ml (fold-induction) [2]: 18.6

B4: Zven1 (E. coli produced) (ligand)
chain: AVITGACDKDSQCGGGMCCAVSIWVKSIRICTPMGKLGDSCHPLTRKVPFFGRRMHHTCPCLPGLACLRTSFNRFICLAQK
SRE luciferase fold-induction at 1 ng/ml (GPCR73a receptor [8]): 1.9 fold-induction
SRE luciferase fold-induction at 3.2 ng/ml (GPCR73a receptor [8]): 4 fold-induction
SRE luciferase fold-induction at 10 ng/ml (GPCR73a receptor [8]): 8.4 fold-induction
SRE luciferase fold-induction at 32 ng/ml (GPCR73a receptor [8]): 15 fold-induction
SRE luciferase fold-induction at 100 ng/ml (GPCR73a receptor [8]): 19 fold-induction
SRE luciferase fold-induction at 320 ng/ml (GPCR73a receptor [8]): 20.7 fold-induction
SRE luciferase fold-induction at 1000 ng/ml (GPCR73a receptor [8]): 17.8 fold-induction
SRE luciferase fold-induction at 1 ng/ml (GPCR73a receptor [9]): 4.1 fold-induction
SRE luciferase fold-induction at 3.2 ng/ml (GPCR73a receptor [9]): 7.6 fold-induction
SRE luciferase fold-induction at 10 ng/ml (GPCR73a receptor [9]): 10.2 fold-induction
SRE luciferase fold-induction at 32 ng/ml (GPCR73a receptor [9]): 14.1 fold-induction
SRE luciferase fold-induction at 100 ng/ml (GPCR73a receptor [9]): 17.6 fold-induction
SRE luciferase fold-induction at 320 ng/ml (GPCR73a receptor [9]): 22 fold-induction
SRE luciferase fold-induction at 1000 ng/ml (GPCR73a receptor [9]): 13.9 fold-induction
SRE luciferase fold-induction at 1 ng/ml (GPCR73b receptor [10]): 0.7 fold-induction
SRE luciferase fold-induction at 3.2 ng/ml (GPCR73b receptor [10]): 1.3 fold-induction
SRE luciferase fold-induction at 10 ng/ml (GPCR73b receptor [10]): 1.9 fold-induction
SRE luciferase fold-induction at 32 ng/ml (GPCR73b receptor [10]): 3 fold-induction
SRE luciferase fold-induction at 100 ng/ml (GPCR73b receptor [10]): 4.7 fold-induction
SRE luciferase fold-induction at 320 ng/ml (GPCR73b receptor [10]): 6.3 fold-induction
SRE luciferase fold-induction at 1000 ng/ml (GPCR73b receptor [10]): 7.1 fold-induction
SRE luciferase fold-induction at 1 ng/ml (GPCR73b receptor [11]): 1 fold-induction
SRE luciferase fold-induction at 3.2 ng/ml (GPCR73b receptor [11]): 1.2 fold-induction
SRE luciferase fold-induction at 10 ng/ml (GPCR73b receptor [11]): 1.7 fold-induction
SRE luciferase fold-induction at 32 ng/ml (GPCR73b receptor [11]): 2.6 fold-induction
SRE luciferase fold-induction at 100 ng/ml (GPCR73b receptor [11]): 4.4 fold-induction
SRE luciferase fold-induction at 320 ng/ml (GPCR73b receptor [11]): 5.2 fold-induction
SRE luciferase fold-induction at 1000 ng/ml (GPCR73b receptor [11]): 4.8 fold-induction

— US20040156842A1 (ZymoGenetics, published 2004)
